Test results: paper PMC7041688 (The Journal of Cell Biology, 2020)
Where a chain is given by its changes, count along the chain named. In names and notes the source's numbering stands. Values belong to the binder of their own block, whether it stands above or below them.

Tests used:
[1] = molecular target: T1, CHC(1–364) (UniProt Q00610 1-364); assay: crystal structure
T1 sequence (looked up): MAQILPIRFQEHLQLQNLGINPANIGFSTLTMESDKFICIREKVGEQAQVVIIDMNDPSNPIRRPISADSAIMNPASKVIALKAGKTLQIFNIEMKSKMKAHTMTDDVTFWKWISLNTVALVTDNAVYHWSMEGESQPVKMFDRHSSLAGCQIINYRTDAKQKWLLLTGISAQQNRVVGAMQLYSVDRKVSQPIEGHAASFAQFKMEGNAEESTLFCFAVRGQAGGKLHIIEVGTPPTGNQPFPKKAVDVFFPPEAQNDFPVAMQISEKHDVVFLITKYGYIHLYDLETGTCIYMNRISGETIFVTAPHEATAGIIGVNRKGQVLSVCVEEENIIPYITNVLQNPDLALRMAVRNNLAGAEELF

[2] = molecular target: T2, CHC(1–642)-6xHis (UniProt Q00610 1-642); assay: pull-down
T2 sequence (looked up): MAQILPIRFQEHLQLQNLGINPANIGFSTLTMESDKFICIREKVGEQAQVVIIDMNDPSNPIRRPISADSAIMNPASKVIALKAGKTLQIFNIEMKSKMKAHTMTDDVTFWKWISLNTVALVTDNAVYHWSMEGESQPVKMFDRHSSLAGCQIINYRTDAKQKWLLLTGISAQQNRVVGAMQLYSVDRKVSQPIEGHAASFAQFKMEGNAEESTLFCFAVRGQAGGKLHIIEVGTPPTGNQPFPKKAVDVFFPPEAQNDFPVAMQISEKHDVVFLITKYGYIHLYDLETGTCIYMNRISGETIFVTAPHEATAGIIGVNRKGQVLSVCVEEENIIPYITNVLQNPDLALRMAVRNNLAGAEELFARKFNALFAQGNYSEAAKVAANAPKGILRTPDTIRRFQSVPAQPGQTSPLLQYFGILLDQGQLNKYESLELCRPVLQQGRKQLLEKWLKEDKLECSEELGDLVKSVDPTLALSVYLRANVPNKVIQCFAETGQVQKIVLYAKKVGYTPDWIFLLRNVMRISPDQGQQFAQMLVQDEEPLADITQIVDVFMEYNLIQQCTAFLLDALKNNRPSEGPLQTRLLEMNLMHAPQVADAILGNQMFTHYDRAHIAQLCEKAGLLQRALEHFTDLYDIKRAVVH

[3] = molecular target: T3, GTSE1-GFP (purified) (human, UniProt Q9NYZ3 1-739); assay: pull-down
T3 sequence (looked up): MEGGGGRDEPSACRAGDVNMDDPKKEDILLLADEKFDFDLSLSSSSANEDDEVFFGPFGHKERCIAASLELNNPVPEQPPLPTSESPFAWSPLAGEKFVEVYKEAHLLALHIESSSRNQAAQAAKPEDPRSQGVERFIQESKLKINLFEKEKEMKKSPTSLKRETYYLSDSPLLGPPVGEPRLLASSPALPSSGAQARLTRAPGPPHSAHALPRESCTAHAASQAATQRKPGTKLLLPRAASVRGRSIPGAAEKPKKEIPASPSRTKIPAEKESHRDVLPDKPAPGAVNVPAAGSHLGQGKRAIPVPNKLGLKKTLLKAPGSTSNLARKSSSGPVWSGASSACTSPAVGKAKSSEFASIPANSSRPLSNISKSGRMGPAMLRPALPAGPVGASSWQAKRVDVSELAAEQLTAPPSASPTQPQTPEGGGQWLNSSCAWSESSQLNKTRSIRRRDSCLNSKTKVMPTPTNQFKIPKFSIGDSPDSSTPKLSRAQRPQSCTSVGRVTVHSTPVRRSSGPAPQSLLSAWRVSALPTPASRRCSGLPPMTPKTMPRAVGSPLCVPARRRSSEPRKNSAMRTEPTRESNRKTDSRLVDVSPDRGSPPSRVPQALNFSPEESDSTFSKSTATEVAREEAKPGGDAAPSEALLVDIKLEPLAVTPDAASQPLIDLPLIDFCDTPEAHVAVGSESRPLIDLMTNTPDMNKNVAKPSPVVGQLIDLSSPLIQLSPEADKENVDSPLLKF

[4] = molecular target: T4, GTSE1 (purified recombinant) (human, UniProt Q9NYZ3 1-739); assay: pull-down
T4 sequence (looked up): T3 sequence (looked up)

- binding result [1]: binds
B1: GTSE1-C4 (domain or fragment, human)
chain: GPLGSQPLIDLPLIDFCDTPEAHVAVGSESRPLIDLMTNTPDMNKNVAKPSPVVGQLIDLSSPLIQLSPE

- binding result [2]: binds
B2: GST-GTSE1-C1 (domain or fragment, human, UniProt Q9NYZ3 652-687, looked up)
chain: PLAVTPDAASQPLIDLPLIDFCDTPEAHVAVGSESR

- binding result [2]: binds
B3: GST-GTSE1-C3 (domain or fragment, human, UniProt Q9NYZ3 693-739, looked up)
chain: MTNTPDMNKNVAKPSPVVGQLIDLSSPLIQLSPEADKENVDSPLLKF

- binding result [2]: binds
B4: GST-GTSE1-C3 motif E mutant (domain or fragment, human, UniProt Q9NYZ3 693-739, looked up)
chain: B3 chain with L28A, I29A, Q30A

- binding result [3]: binds
- binding result [4]: binds
B5: GST-CHC(1–330) (domain or fragment, UniProt Q00610 1-330, looked up)
chain: MAQILPIRFQEHLQLQNLGINPANIGFSTLTMESDKFICIREKVGEQAQVVIIDMNDPSNPIRRPISADSAIMNPASKVIALKAGKTLQIFNIEMKSKMKAHTMTDDVTFWKWISLNTVALVTDNAVYHWSMEGESQPVKMFDRHSSLAGCQIINYRTDAKQKWLLLTGISAQQNRVVGAMQLYSVDRKVSQPIEGHAASFAQFKMEGNAEESTLFCFAVRGQAGGKLHIIEVGTPPTGNQPFPKKAVDVFFPPEAQNDFPVAMQISEKHDVVFLITKYGYIHLYDLETGTCIYMNRISGETIFVTAPHEATAGIIGVNRKGQVLSVCVE

- binding result [4]: binds
B6: GST-CHC(1–330) S2M (domain or fragment, UniProt Q00610 1-330, looked up)
chain: B5 chain with Q152L, I154Q

- binding result [1]: binds
B7: GTSE1-C5 (domain or fragment, human)
chain: GPLGSLAVTPDAASQPLIDLPLIDFCDTPEAHVAVGSESRPLIDLMTNTPDMNKNVAKPSPVVGQLIDLSSP
